From patent US20190135921A1, “METHODS OF PREVENTING OR TREATING SLAMF7 POSITIVE AND SLAMF7 NEGATIVE CANCERS” (ADAERATA, LIMITED PARTNERSHIP, priority 2016, published 2019) come the findings set out here.

For assay [1], the system named is Colo205, SW480 and SW620 cells. The assay is described as follows: in vitro phagocytosis assay, mouse BMDMs with human non-hematopoietic tumor cells. It is filed as cell-based. Conditions: BMDMs pretreated with LPS; FIG. 2R. The protocol:
In vitro phagocytosis assays. For the microscopy-based assay, 5×10^4 macrophages were seeded overnight in a 24-well tissue culture plate. On the next day, target cells were washed and labeled with 2.5 μM of carboxyfluorescein succinimidyl ester (CFSE), using the CFSE Cell Proliferation Kit (C34554; Life Technologies, Burlington, ON, Canada). After incubating macrophages in serum-free medium for 2 hours, 2×10^5 CFSE-labeled target cells were added to the macrophages, in the presence of anti-CD47 Ab or control IgG (10 μg/mL). After incubation for 2 hours at 37° C., macrophages were extensively washed and imaged with an inverted microscope (Carl Zeiss Axiovert™ S100 TV). The phagocytosis efficiency was calculated as the number of macrophages containing CFSE^+ target cells per 100 macrophages. […] Cells were then stained on ice for 30 minutes with APC conjugated-anti-human Tac (CD25) and PE-conjugated MAb F4/80, and analyzed by flow cytometry. After gating on F4/80^+Tac^− cells (which include macrophages but exclude non-phagocytosed Tac-positive L1210 cells), phagocytosis efficiency was determined as the percentage of F4/80^+Tac^− cells containing CFSE-derived green fluorescence (detected in FL1 channel). […] They were then stained with APC-conjugated anti-F4/80 and analyzed by flow cytometry. […] Phagocytosis was monitored by microscopy. […]

For assay [2], the system named is thymocytes. The assay is described as follows: induction of apoptotic thymocytes (annexin V). Format: cell-based, mouse. Conditions: 1 μM, 10 hours, 37° C.; data not shown.
In assay [3] the target is T1, mouse CD11b (integrin alphaM, alpha subunit of Mac-1) (mouse, UniProt P05555 17-1153).
T1 construct: whole, on cells; Together with CD18 it constitutes Mac-1; Endogenous protein recovered from cell lysates; also called Mac-1 (CD11b); CR3 alpha subunit
The assay is described as follows: anti-CD11b immunoprecipitation from WT and CD11b KO BMDM lysates, mass spectrometry. The protocol: (§1) Authenticated cells. (FIG. 9D) Lysates from the mouse macrophage cell line RAW264.7 expressing GFP alone or in combination with a FLAG-tagged version of mouse SLAMF7 (FLAG-SLAMF7) were immunoprecipitated with anti-FLAG. They were then probed by immunoblotting with anti-CD11b (Mac-1) or anti-SLAMF7. Total cell lysates were analyzed in parallel. (FIG. 9E) Co-localization of SLAMF7 and CD11b in RAW264.7 cells expressing GFP alone or with FLAG-SLAMF7 assessed by immunofluorescence. Semi-confluent RAW264.7 cells expressing GFP alone (bottom) or in combination with FLAG-SLAMF7 (top) were fixed and stained with antibodies against FLAG, CD11b (Mac-1) or CD18, as detailed in Example 1. Staining was detected by confocal microscopy. Scale bar, 5 μm. […] (FIG. 9F) As in FIG. 9E, except that only RAW264.7 cells expressing FLAG-SLAMF7 were analyzed and that antibodies coupled to different fluorophores were used. […] (FIG. 9G-A and FIG. 9G-B) RAW264.7 derivatives expressing GFP alone or in combination with FLAG-SLAMF7 were analyzed by flow cytometry, using antibodies directed against FLAG and SLAMF7 (dotted lines). […]
(§2) Immunoprecipitations, mass spectrometry, immunoblots. […] In brief, immunoprecipitated proteins were digested with trypsin (Promega, Madison, Wis.) and analyzed by LC-MS/MS on a LTQ Orbitrap™ Velos (ThermoFisher Scientific, Bremen, Germany) equipped with a Proxeon nanoelectrospray™ ion source. […]

The target of assay [4] is T1, mouse CD11b (integrin alphaM, alpha …). The assay is described as follows: anti-FLAG IP from RAW264.7 cells expressing FLAG-SLAMF7, anti-CD11b immunoblot; confocal co-localization. The protocol:
as §1, §2

T1 sequence (P05555 17-1153): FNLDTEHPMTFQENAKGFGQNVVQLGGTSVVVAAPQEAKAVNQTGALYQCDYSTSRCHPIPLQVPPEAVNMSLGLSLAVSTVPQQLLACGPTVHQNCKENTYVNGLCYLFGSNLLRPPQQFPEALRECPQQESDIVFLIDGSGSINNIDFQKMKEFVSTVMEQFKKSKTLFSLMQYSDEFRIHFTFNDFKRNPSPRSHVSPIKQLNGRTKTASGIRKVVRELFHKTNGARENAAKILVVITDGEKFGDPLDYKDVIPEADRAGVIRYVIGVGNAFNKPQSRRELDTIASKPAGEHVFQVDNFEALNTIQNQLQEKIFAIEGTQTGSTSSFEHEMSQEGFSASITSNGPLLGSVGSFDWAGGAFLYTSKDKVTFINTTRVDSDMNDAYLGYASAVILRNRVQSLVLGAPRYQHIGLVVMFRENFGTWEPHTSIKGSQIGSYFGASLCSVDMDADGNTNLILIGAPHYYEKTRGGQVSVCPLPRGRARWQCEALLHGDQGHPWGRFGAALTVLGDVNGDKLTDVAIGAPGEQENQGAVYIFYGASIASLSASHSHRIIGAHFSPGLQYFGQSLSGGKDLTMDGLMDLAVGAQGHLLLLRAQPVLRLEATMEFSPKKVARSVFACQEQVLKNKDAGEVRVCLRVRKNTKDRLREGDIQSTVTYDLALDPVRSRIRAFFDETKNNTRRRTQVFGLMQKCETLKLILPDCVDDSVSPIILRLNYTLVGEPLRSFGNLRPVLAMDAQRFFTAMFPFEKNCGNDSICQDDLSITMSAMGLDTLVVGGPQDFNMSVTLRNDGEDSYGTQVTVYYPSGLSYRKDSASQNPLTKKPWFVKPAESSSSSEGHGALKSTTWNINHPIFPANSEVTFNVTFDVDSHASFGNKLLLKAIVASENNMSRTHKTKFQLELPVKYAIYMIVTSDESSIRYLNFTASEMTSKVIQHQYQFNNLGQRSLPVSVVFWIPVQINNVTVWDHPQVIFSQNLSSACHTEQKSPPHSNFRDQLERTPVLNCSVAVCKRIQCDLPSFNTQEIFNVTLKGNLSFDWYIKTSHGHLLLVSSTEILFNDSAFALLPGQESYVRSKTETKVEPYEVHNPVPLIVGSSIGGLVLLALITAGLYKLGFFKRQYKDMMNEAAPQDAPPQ

Consider lipopolysaccharide [LPS], for which, in assay [1], the “phagocytosis of non-hematopoietic targets” value is recorded as “phagocytosis of non-hematopoietic targets was seen”.
Take `C[C@@H]1C[C@H]2[C@@H]3CCC4=CC(=O)C=C[C@]4(C)[C@@]3(F)[C@@H](O)C[C@]2(C)[C@@]1(O)C(=O)CO` [dexamethasone]: in assay [2], the “cells becoming apoptotic (annexin V-positive)” value is “about 70%”.

B1: mouse CD64 (Fc receptor) (receptor, UniProt P26151 25-404, looked up)
chain: EVVNATKAVITLQPPWVSIFQKENVTLWCEGPHLPGDSSTQWFINGTAVQISTPSYSIPEASFQDSGEYRCQIGSSMPSDPVQLQIHNDWLLLQASRRVLTEGEPLALRCHGWKNKLVYNVVFYRNGKSFQFSSDSEVAILKTNLSHSGIYHCSGTGRHRYTSAGVSITVKELFTTPVLRASVSSPFPEGSLVTLNCETNLLLQRPGLQLHFSFYVGSKILEYRNTSSEYHIARAEREDAGFYWCEVATEDSSVLKRSPELELQVLGPQSSAPVWFHILFYLSVGIMFSLNTVLYVKIHRLQREKKYNLEVPLVSEQGKKANSFQQVRSDGVYEEVTATASQTTPKEAPDGPRSSVGDCGPEQPEPLPPSDSTGAQTSQS
notes: whole, on cells
For B1, the binding result in assay [3] is listed as “no binding”.

B2: mouse CD16 (Fc receptor) (receptor, UniProt P08508 31-261, looked up)
chain: ALPKAVVKLDPPWIQVLKEDMVTLMCEGTHNPGNSSTQWFHNGRSIRSQVQASYTFKATVNDSGEYRCQMEQTRLSDPVDLGVISDWLLLQTPQRVFLEGETITLRCHSWRNKLLNRISFFHNEKSVRYHHYKSNFSIPKANHSHSGDYYCKGSLGSTQHQSKPVTITVQDPATTSSISLVWYHTAFSLVMCLLFAVDTGLYFYVRRNLQTPREYWRKSLSIRKHQAPQDK
notes: whole, on cells
On to B2, for which the binding result in assay [3] was “no binding”.

B3: FLAG-tagged version of mouse SLAMF7 (receptor, UniProt Q8BHK6 23-333, looked up)
chain: SGTLKKVAGALDGSVTFTLNITEIKVDYVVWTFNTFFLAMVKKDGVTSQSSNKERIVFPDGLYSMKLSQLKKNDSGAYRAEIYSTSSQASLIQEYVLHVYKHLSRPKVTIDRQSNKNGTCVINLTCSTDQDGENVTYSWKAVGQGDNQFHDGATLSIAWRSGEKDQALTCMARNPVSNSFSTPVFPQKLCEDAATDLTSLRGILYILCFSAVLILFAVLLTIFHTTWIKKGKGCEEDKKRVDRHQEMPDLCPHLEENADYDTIPYTEKRRPEEDAPNTFYSTVQIPKVVKSPSSLPAKPLVPRSLSFENVI
notes: whole, on cells; It was immunoprecipitated with anti-FLAG from RAW264.7 lysates; also called FLAG-SLAMF7; not shown: FLAG tag
For the molecule B3, in assay [4], the binding result is on record as “binds”.
